Conditions in all cases: both partners purified
Experiment [1] deals with T1, Hs CAF40 ARM domain (residues 19–285) (human, UniProt Q92600 19-285).
T1 construct: CAF40 (CNOT9) armadillo repeat domain, human, residues 19–285; also called CNOT9; purified CAF40 protein; source: E. coli BL21 (DE3) Star, purified (IMAC, heparin, gel filtration)
Nature of the experiment: pull-down; in vitro MBP pulldown: purified MBP-tagged Roquin fragments (40 μg) with equimolar purified CCR4-NOT proteins or subcomplexes on amylose resin; 50 mM HEPES-NaOH pH 7.5, 200 mM NaCl, 2 mM DTT; 1 h; maltose elution, SDS-PAGE, Coomassie.

For experiment [2], the target named is T1, Hs CAF40 ARM domain (residues 19–285). As to the kind of experiment: crystal structure; synthetic CBM peptide mixed with the purified Hs CAF40 ARM domain in an equimolar ratio; 0.1 M NaOAc pH 5.0, 17.5% PEG 4000, 0.1 M AmSO4, 18 °C; 2.15 Å.
Experiment [3] concerns the target T2, Hs NOT module (NOT1-SHD, NOT2-C, NOT3-C) (human, UniProt A5YKK6 1833-2361; Q9NZN8 350-540; O75175 607-748).
T2 construct: NOT1 superfamily homology domain (SHD), human, residues 1833–2361; NOT2-C, human, residues 350–540; NOT3-C, human, residues 607–748; also called NOT1-2-3; source: E. coli, purified as previously described; copies: + +
As to the kind of experiment: pull-down; in vitro MBP pulldown: purified MBP-tagged Roquin fragments (40 μg) with equimolar purified CCR4-NOT proteins or subcomplexes on amylose resin; 50 mM HEPES-NaOH pH 7.5, 200 mM NaCl, 2 mM DTT; 1 h; maltose elution, SDS-PAGE, Coomassie.

T1 sequence (Q92600 19-285): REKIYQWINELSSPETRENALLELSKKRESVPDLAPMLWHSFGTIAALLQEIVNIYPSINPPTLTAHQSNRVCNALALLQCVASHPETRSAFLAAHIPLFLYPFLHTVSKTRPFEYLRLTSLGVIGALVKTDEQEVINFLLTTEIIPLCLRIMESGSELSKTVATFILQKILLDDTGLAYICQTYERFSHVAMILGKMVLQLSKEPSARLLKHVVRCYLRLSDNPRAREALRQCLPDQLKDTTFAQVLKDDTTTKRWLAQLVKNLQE
T2 sequence (A5YKK6 1833-2361, chain 1 of 3): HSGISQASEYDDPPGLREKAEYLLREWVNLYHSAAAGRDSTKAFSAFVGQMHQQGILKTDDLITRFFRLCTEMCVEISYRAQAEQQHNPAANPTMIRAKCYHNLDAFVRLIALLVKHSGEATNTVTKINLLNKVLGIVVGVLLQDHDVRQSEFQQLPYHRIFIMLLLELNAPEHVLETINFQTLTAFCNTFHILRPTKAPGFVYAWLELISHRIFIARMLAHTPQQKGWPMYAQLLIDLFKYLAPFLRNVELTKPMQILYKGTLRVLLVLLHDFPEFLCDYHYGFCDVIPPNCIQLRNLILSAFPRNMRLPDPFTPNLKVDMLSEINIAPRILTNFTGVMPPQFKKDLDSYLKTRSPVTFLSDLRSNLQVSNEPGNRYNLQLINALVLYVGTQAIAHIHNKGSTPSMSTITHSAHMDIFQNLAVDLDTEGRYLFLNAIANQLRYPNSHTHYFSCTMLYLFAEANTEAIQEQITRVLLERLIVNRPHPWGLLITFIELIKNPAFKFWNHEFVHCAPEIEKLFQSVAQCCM
T2 sequence (Q9NZN8 350-540, chain 2 of 3): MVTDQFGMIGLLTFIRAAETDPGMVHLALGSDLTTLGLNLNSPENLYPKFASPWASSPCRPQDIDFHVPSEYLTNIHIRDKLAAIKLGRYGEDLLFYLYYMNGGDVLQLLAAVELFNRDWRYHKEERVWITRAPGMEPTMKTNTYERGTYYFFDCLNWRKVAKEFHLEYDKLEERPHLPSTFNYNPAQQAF
T2 sequence (O75175 607-748, chain 3 of 3): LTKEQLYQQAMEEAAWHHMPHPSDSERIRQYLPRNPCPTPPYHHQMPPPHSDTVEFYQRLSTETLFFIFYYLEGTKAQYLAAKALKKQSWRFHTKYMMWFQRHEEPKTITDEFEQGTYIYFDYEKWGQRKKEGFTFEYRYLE

B1: MBP-tagged Dm Roquin CBM alone (peptide, UniProt Q9VV48 790-812, looked up)
chain: EGGIDSGMMLQLEKNLVDIVDPD
notes: source: E. coli BL21 (DE3) Star, purified; not shown: MBP, N-terminal, kept
Consider B1, for which the binding result in experiment [1] is on record as “binds”.

B2: Dm Roquin CBM peptide (residues 790–810) (peptide, UniProt Q9VV48 790-810, looked up)
peptide: EGGIDSGMMLQLEKNLVDIVD
notes: also called Dm CBM; source: synthetic peptide (EMC Microcollections)
B2: in experiment [2], the binding result was “binds”.

B3: MBP-tagged Dm Roq-CN (domain or fragment, Drosophila melanogaster, UniProt Q9VV48 501-702, looked up)
chain: HYMGSPRGYLDPSLGLSPGGGLPPSHHSPITRLIVPSRYDSRFSGFGGGTPRIPSPREYQANPVAPTQRNANPPNFSVNSNLHKGYMLPASGGDVFHLANPWEQAYLAQQQHPPQHPQQQQPPSSKPNPSRPLSILPATADTSFFEKKPPNSVSIDLDRVPEVNVDAVPLFRRSNNNHNNNNSNSHNNNNNNHGSSLLFWNN
notes: as for B1
On to B3, for which the binding result in experiment [3] was “binds”.

B4: MBP-tagged Dm Roq-CC (domain or fragment, Drosophila melanogaster, UniProt Q9VV48 702-819, looked up)
chain: NTGKDSANFVRSDSILDDDASTFDVPTGSSMLSIYGPICPKSSTTGNWNNFDLGYGGFKSDRNDSFNANKQQQPMWGRKPQLMSEDSFEGGIDSGMMLQLEKNLVDIVDPDDSGIKVD
notes: also called MBP-Roq-CC; not shown: MBP, N-terminal, kept
As for B4, the binding result in experiment [3] and in experiment [1] was “binds” each time.

These data come from article PMC5303829, “A CAF40-binding motif facilitates recruitment of the CCR4-NOT complex to mRNAs targeted by Drosophila Roquin” (Nature Communications, 2017).
